Results reported in publication PMC6649072.

Substrate: C[C@@H]1O[C@@H](Oc2ccc([N+](=O)[O-])cc2)[C@H](O)[C@H](O)[C@H]1O
Assay: purified protein
Settings: pH 5.0, 37 °C (b12; Experimental b31 prints Tris 200 mM, pH 6.0)

B1: DtRha (Dictyoglomus thermophilum H-6-12) (protein)
chain: MKSSNIYSPFDLKCEFTTNPLGVDKKNPIFSWKLRHLEKNEKQTAYQVIVSSSLETINDNIGDVWDTGKVLSSEQVIKYEGKELEPCKVYFWKVRWWDSKDQESPFSVVNTFETGLMNEENWKAKWITKKEHKYEVYSPDGAPFGLNYTIAYAPMFRKSFSISKKIKRARVYIAGLGLYELYINGERIGDRVLDPGQTDYKKRVLYTVYDVSKNIRDGKNAIGVILGNGRYVKEYGYDFPKLIIQVLVEYEDDSIEWIVSDESWKTTYGPITLNSLYHGEIYDGRKEIKGWNLPDFDDSTWENAILAEPPGGKLYSEIYPPIRITKTIKPIKMWSPEPGTYVYDFGQNYTGWIKIKVRTNESGKEIRIRHAELTYEDGTLNYSTNRTALATDVYITKGEGYEEYEPRFTYHGFRYVEILGYPGVPTLEDIEGKVVHTAVESNGEFICSNELINKIHHNIIWGQLSNLMSIPTDCPQRDERMGWMGDAQLSAEEAIFNFDMIGFYRKYLNDIRDAQKENGSLSDVIPPYWSIYPGDPAWSTAYITIAWYLYQYYGDKYVLEEHYEGFKKYVEFLKKLAPDYIVSFYKYGDWCQPGTVRPKDNSGELTSTFYFYHDVITLSKIAKLLGKEADYKYYSELADKIKSAFNKKFLKEKAYASIPTELSEENVKALLEKYPEDIKDFLRQQFTILSSLGMFTSQTLNTLPLYLNLVPEDKVQDVLKTLLEDIIIRHDYHLDTGIVATRYIFDVLTSYGYDEVAYKIVNQKTYPSFGYMIEEGATTLWERWEKLTSTGMNSHNHIMFGSVDAWFYRVIAGVRVGEPGWNKIIFEPHPVGDLKYAKARLNTIKGEVEINWQKTENIFSMRISVPVNSEGEVHVPKLFERFVVKEGDNIIYEKKGDLEENEKYIVIRVGSGSYNFYMEKI
Km: 54.00 ± 0.03 µM | kcat: 0.17 ± 0.01 s⁻¹
